# Results as given in patent US20140235701, “NGF APTAMER AND APPLICATION THEREOF” (RIBOMIC INC., published 2014).
# Target: NGF (nerve growth factor) (Homo sapiens, UniProt P01138 P01138:122-241)
# Test: cell_activity; neurite; TF-1 >10
# Details: tags: R&D Systems; chain copies: 2
# Chain of NGF (nerve growth factor) (P01138 122-241, one chain of several): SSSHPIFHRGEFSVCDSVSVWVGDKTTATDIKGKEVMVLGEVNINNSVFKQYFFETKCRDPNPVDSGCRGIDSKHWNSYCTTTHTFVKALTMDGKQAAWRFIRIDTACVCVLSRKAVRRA
binder,measurement,value
"GGGUCCUGCUGCGUAGUUUCCUUCUGCGUGGUUGUUACCC (ssRNA, 2'-F C/U, dA, 2'-OH G) [SEQ ID NO: 86]",IC50,0.834 nM
